Measurements published in doi:10.1101/859132 (bioRxiv, 2019).
Substitutions are numbered along the chain they refer to.

Assays:
Assay in all cases: pull-down
[1] = molecular target: T1, Maf1-id T33E/T34E (S. cerevisiae, UniProt P41910 1-395, Δ64-194 | T33E | T34E)
T1 sequence (looked up): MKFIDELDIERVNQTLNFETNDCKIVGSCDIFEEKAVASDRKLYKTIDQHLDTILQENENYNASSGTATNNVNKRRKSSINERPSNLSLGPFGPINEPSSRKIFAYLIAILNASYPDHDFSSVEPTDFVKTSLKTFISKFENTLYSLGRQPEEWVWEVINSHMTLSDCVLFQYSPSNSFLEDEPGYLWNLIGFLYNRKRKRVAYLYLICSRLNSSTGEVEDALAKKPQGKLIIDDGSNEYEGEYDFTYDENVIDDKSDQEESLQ

[2] = molecular target: T2, Maf1-id D248A/D250A (S. cerevisiae, UniProt P41910 1-395, Δ64-194 | D248A | D250A)
T2 sequence (looked up): T1 sequence (looked up) with E33T, E34T, D117A, D119A

[3] = molecular target: T3, Maf1-id L318S/W319S (S. cerevisiae, UniProt P41910 1-395, Δ64-194 | L318S | W319S)
T3 sequence (looked up): T1 sequence (looked up) with E33T, E34T, L187S, W188S

[4] = molecular target: T4, Maf1-id (Maf1 Δ64-194) (S. cerevisiae, UniProt P41910 1-395, Δ64-194)
T4 sequence (looked up): T1 sequence (looked up) with E33T, E34T

Measured: binding result

B1: C34 1-156 (the two N-terminal C34 WH domains), His-tagged (domain or fragment, S. cerevisiae, UniProt P32910 1-156, looked up)
chain: MSGMIENGLQLSDNAKTLHSQMMSKGIGALFTQQELQKQMGIGSLTDLMSIVQELLDKNLIKLVKQNDELKFQGVLESEAQKKATMSAEEALVYSYIEASGREGIWSKTIKARTNLHQHVVLKCLKSLESQRYVKSVKSVKFPTRKIYMLYSLQPS
binds: all assays above
